Results on 21 sequences are retold here after the DeepSol protein solubility set.

The series in a line: soluble on expression in E. coli; label from the status in PepcDB or PDB records.
“MGSDKIHHHHHHMKILVGSPVSLEEFETIDLFISWLDVIPDNARFSIVGTSKFFIIGKNGREWKKGYEFGIVDADINIFVVGGDLALYPEVFYIAKENGAKLVVGFCEIQNFIDFNFVKAKFWAHTQETSLASIVLLNFLGKVHNNIYFPLEKTKNQTGVVAEGVAPVFLELKKNFFSSEEAEDV”: the “soluble on expression in E. coli” value was “not soluble”.

On to “MGHHHHHHSHMGHLDKEGLCTQGSSFSWLLRVLNDGISLGLTPCLWDMYLLEGEQMLMLITSIAFKVQRSLYEETNKETWGPATPRALKGTGRARPICESLHSSLQALTASESSRGPSLLQTPPRVPGQQALSRGDKGISVSLSLPSLPSRRGRCGRIIG”, for which the “soluble on expression in E. coli” value is given as “not soluble”.

In the case of “MKNEDGIINILLMGTDARPNEDSSRSDAMMILTIDNKHNDIKLTSLARDSYVDIPGHGKQKLTHAYAYGQADLLIQTIEENFNIDIQNYACVNFESFMYIIDAIGGVEVTVEKGEIRELNKFIPETYKWNKSDDKGSIQYIRNSGKQTLNGYQALSFARIRHNDTAFARDGRQRQIIQAIIKKTETLPVTKYPGLLDAVLPYVKTNMKPNAILSLGAQVLKMGDLNIKQFEFPIDDEIHSTGGIYGKAGWVLRFDPDTLDILHDFIFNDIEFKQLEHHHHHH”, the “soluble on expression in E. coli” value is “soluble”.

Take “MKFNSMFSPIDIGPMKVPNRFVVSPMCNNYANTDGTLSDTSLAYYKERALGGFGLITFEATVVDVRAKGGANKACLYSDHQIASFKRVIDVCHDAGAKISVQLQHAGPEGNSKVSGYPLRAASAIASAAGRNTPEAISREELYELIELYGEAALRAKKAGADAVEVHCAHGYLVSSFLSARTNKRVDEFGGCFENRMRLPRLIIESIRKRVGHSIAILCRINSTDGVDGGLSVQDSATVAAYLEDCGLDGLHVSRSVHIRDEYMWAPTVLHAGFSSDLVTQIKRAVSIPVITVGRFTEPHYAELMVREGRADLVAFGRQSLADPETPNKAAAGKLDELLPCIACLQGCVANMYAGKPITCLVNPLLGRESEAYLPKTPSKKVVVVGGGVGGLYAGWMAGSRGHDVTVYEASDMIGGQMRLAAYPPGKGDLTNMVRSYIKKCEQFDVEIKTNTPVTLELIQEVAPDAVIIATGATPLVLPIPGIEDAGLIHAVDLLDGKEKCGQKVLVVGGGMVGSETAAFLGEAGHDVTVVELRDEVGADVISEHRKFLMHDFDEYKIKSVTNAKVTSFFEDGVTYSLADNKEQRIDGFDSVVLAMGSRAYNPLEEAIKAIVPETYVIGDAVRARRALDATKEALDAVLQL”: the “soluble on expression in E. coli” value is on record as “not soluble”.

As to “MAHHHHHHSLAKRIVGSTPKQDGFRMPGEFEPQEKVWMIWPERPDNWRDGGKPVQEAFTNVAKAISQFTPMNVVVSQQQFQNCRRQLPPEITVYEMSNNDAWVRDCGPSFVINDHGEIRGVDWTFNAWGGLVDGLYFPWDQDDLVAQKICEIEHVDSYRTDDFVLEGGSFHVDGQGTVLTTEMCLLSEGRNPQLSKEAIEQKLCDYLNVEKVLWLGDGIDPEETNGHVDDVACFIAPGEVACIYTEDQNSPFYEAAQDAYQRLLKMTDAKGRQLKVHKLCCPVKNVTIKGSFKIDFVEGTMPREDGDICIASYMNFLITNDGVIVPQYGDENDHLALEQVQTMFPDKKIVGVNTVEVVYGGGNIHCITQQEPKREG”, the “soluble on expression in E. coli” value is “not soluble”.

Regarding “MSLAGHQPILTVSEVTRHLKRTIEDDPLLQDVWMRGEISNFKHHSRGHMYFTLKDEHAKMSAVMFAGNNRFLNFKPENGMKVIVRGEVNVYEPFGQYQLYALEMQPDGIGNLYLAYEQLKERLEQEGLFKEENKKPLPPVARQIAIVTSPTGAAIRDIASTIKRRFPVAQLTLLPVLVQGEEAPHSIAKAIRQANEVGGFDLLIVGRGGGSIEELWAFNEELVARAIYQSVIPIISAVGHETDYTIADFVADVRAATPTGAAELAVPDLKELISRVNQYTERLKRAQHELLKRQKEHLQRLQKSYAFRYPAQLVKQKELELDQQLERLTKHQRRMVSDAKDRLSQLEYRLKRIHPEGRLRQAEQARVKLEVLLKKEFQQMMERKEQQFQQAISSLNLLSPLRVMERGYALPYKAKTQELIKSVKQVRMNDRLHLRVTDGQLICDVKEIESESGGEGYDQKEGHHHHHH”, the “soluble on expression in E. coli” value is listed as “not soluble”.

For “FLQNAVILGATENGLRLAEYLLEHQDIRSGVIGFIDDRIGRMPKTVANLPLLGNTSDLERLIREEKVTQVLVALPWTAENRMDYIIRELRRLPVNVLLVPDMIAFRHT”, the “soluble on expression in E. coli” value is reported as “not soluble”.

Regarding “DELCVVCGDKATGYHYRCITCEGCKGFFRRTIQKNLHPSYSCKYEGKCVIDKVTRNQCQECRFKKCIYVGMATDLVLDDSKRLAKRKLIEENREKRRREELEK”, the “soluble on expression in E. coli” value is “soluble”.

Take “MKQKEMIVMSILVKSVSFDDYRNTQLNEKCANFLQSAEMAKLQESQDHIEKVEALVFERDGLRVAQAIVVYKKSFRVFKKALLLHGPLLDYHSSCWFDREILEALILYLRKKNIATLSIHPYLTNLIRNEKLENIEVDKARDVLEVFETLGFEHSLDSEQSLVVNQMFVKSIESFASSDEILAAFSPSLKRDLKKFTALNVKTEELDEHQLDQFYDILSRTAERKGFSVHPLVYFQNLKKYFGKSAKFMLAYLDCPAYLAYLDENIQSFEAKIQDLKEGPQKKRTKGQIADAEDQLRSYYKRLEQFKSYQIKTDKLPLSAYLFMDYGPEIVSFYGGNDEAYLNFGGAVLLHWEMLKYAKSKSKKHFNFYGTIETEAASSGKGNFNFKRQFGGQLETLVGSFDKTLNPFYDILKKTLGKD”: the “soluble on expression in E. coli” value is “not soluble”.

As for “MHKVSATLLIIDDDEVVRESLAAYLEDSNFKVLQALNGLQGLQIFESEQPDLVICDLRMPQIDGLELIRRIRQTASETPIIVLSGAGVMSDAVEALRLGAADYLIKPLEDLAVLEHSVRRALDRAYLRVENQRYRDKLEAANRELQASLNLLQEDQNAGRQVQMNMLPVTPWSIEGLEFSHRIIPSLYLSGDFVDYFRVDERRVAFYLADVSGHGASSAFVTVLLKFMTTRLLYESRRNGTLPEFKPSEVLAHINRGLINTKLGKHVTMLGGVIDLEKNSLTYSIGGHLPLPVLFVEGQAGYLEGRGLPVGLFDDATYDDRVMELPPSFSLSLFSDGILDVLPGATLKEKEASLPEQVAAAGGTLDGLRQVFGLANLAEMPDDIALLVLSRNLA”, the “soluble on expression in E. coli” value is recorded as “soluble”.

As to “MGSDKIHHHHHHMKCSQCNKKLCYTGKDCKKDITQKIIEEYKKEENLKIAEVSAYIEATYYMKKTRLEEIIEFCKLMEYKKIGIAFCIGLENEAKILAKILSKHFEVYSVCCKVCGIDKDVFKFKKINKGEKEAMCNPIGQAEILNEIGTDLNIIVGLCIGHDILFQKYSKAPTTTFIVKDRVLSHNTAGAIYTKYYLKKLLEGK”, the “soluble on expression in E. coli” value is listed as “not soluble”.

Regarding “MDLSTGVPVSIQLKTIVQQGNEQKDFFFDLEGQLVKMGDTLYIRYKEELLEDTEPTPVTIKIEPDGHVQLIRAGELRMRLRFGYQEKLDTSYRTPYGLLQISTFTHNLRVSLKDQPMSGKILVDYDLYSQTERIGEYHLELEFTA”, the “soluble on expression in E. coli” value is recorded as “not soluble”.

Turning to “MKIQELKLFNGLTEDELQRSLVCSQSNIVEYEKDDYIFSQGERPRWIYMILSGEVLLEQINMAGRQTYAEYLGERQQFGVVDLFLKRKQYSYSARARSHVKLLKISSHFFYGTCENNCMHHSKILFNMMGVFAEEAEKKSKKIQLLTCGSLRQRIALYLLQNSGENKKVELMMNREELAASLNAARPSLSRELSQMQDEGIIKMEGRKSIKILDYSRLQEDLADVSD”, the “soluble on expression in E. coli” value was “not soluble”.

On to “MGHHHHHHSHMQTDIHDEPVNLGFGVQFEPDDLYRLRSQFLPLGKIGGKPSWLNPKNLPKSADLLCNVCEKPLCFLMQVSANGGINDPPHAFHRSLFLFVCRNPSCSRTNDAANLKAFRCQLPRANDYYSFDGPMDPDLDGDVADPRAPADGPGLCRICGCSAAKKCAKCQVARYCSQAHQVIDWPAHKLECAKAATDGSITDEPKNPRNAFCFKEFGVEIDQEYMPANLFDGLSDDEGDEEEEEGNDEDETEEEKKARIREFEKFVKENKGKNADMTKEDLDEATAEQPKDIDFDKFNRLVNLQPDQIIRYKRYGQPLRATGLSELPEVVEPCELCGAPRRFEMQLMPHLLSLIDVDAIGQSIDWASVYVYTCSASCQIADDGYAKEFVAKQDFL”, for which the “soluble on expression in E. coli” value was “soluble”.

For the sequence “MGSDKIHHHHHHMENGEMIKVLLANPRGFCAGVDRAIEIVERALSVHGAPIYVRHEVVHNRFVVEDLEKKGAVFVENLDEVPAGSILIFSAHGVSHAVRREAEAGQFKVFDATCPLVTKVHIEVAKMRDQGREIIMIGHAGHPEVEGTMGQAEGDGPSMYLVETEEDVEKLQVQDPAHLAYVTQTTLSVDDANRVIQALKGRFPNILGPKKDDICYATQNRQDAVKTMVKQCDLVIVVGSPNSSNSNRLCEVARNAGVDAYMLDRAEQLQEAWLKGKMRIGITAGASAPEVLVQEVISRLRQIVSEQAEREVVVEELRGVVESVVFPLPRN”, the “soluble on expression in E. coli” value is listed as “not soluble”.

In the case of “MLRPLSKTDCPMLQEINAKALGYLVSLDLLERQYERLIEDCHHYFLAYADKDTNQLLGYVHAERYETLYASDGLNLLGLAVLPAYQRRGIGSALLRALESQARQEGIAFIRLNSASHRKEAHAFYRNLDYADDKTQLRFIKNLQGDDNDF”, the “soluble on expression in E. coli” value is listed as “not soluble”.

As for “MSLNREAQGSQEGVRIRKARAQDIPIVMEINLESLPENYWYGFYKYILDNWGEAFLVAEVGGEIVGYAMSRVEQTSDPVLLGMKDELEGDKSVIDKILDAIRNQLSEERPVGHLVSIAVRPGFRGRGIGSKLLSATVRVMKNVYRVDAIFLEVRVSNMPAIRLYEKFGFRKVRRIKGYYRDGEDAFVMVKRLLEGHHHHHH”, the “soluble on expression in E. coli” value was “soluble”.

As for “REEELNTEKVVAAIANPVENEVRKVWEDVVEKIEQRVAVIEQASHKLLQNKVSEEILSKAKVEAHKLAGSLGMFGSDEGSQIAQEIESLLDNGKKLKASGGKHLGQVVEALHQELENLKSG”, the “soluble on expression in E. coli” value is listed as “soluble”.

Regarding “MIRRLPMTDSRGMNSDKYGIPNIHIRTTPGPDMDKQTKQTNDSGFNSYSRKYHIPRLWYEPARGIYCSDSVSYSWFIQFLQGGIVHVLCRTSLLSISRILRKRGQKVYFGLRKRHEKLVGFASGHGLCLPGPFQHDPIAPVLLPRFPFVRQGRLVRSVLHTGLFE”, the “soluble on expression in E. coli” value is reported as “not soluble”.

Take “MEEVEEFKYEPKSVKEIFIEMKDTVELMVDLAYASLLFGDKEIAEEVLELEERIDLLNYQLMMHSVLAARNVKEAEQVITILQIANAIEDISNAAGDLAKMVLEGVELHPVIKETILEGEEIIGKIQVYPESVIVGKTLGELDLATNTGVWIIAVRRGKRWIFGPNENFKIRAGDVLIGRGTRTSIDHLKEIARGAIRVIGNERA”: the “soluble on expression in E. coli” value is on record as “soluble”.

As for “MSLAPLAPLRAHAGRRLTAGLDDATIERLATDHPTLRQAIEAAGSEYALVQAEVADLLDLDEDAQISAVQDGFINFYADDAVTPYVALAARGPWVITLKGAVLYDAGGYGMLGFGHTPEAVLDAMARPQVMANVMTPSLAQRKLDRALRAEIGHTRGGCPFARFMCLNSGSEAVGLAARIVDTNAKLHTDPGARHAGATIKRLVVKGSFHGRTDRPGLYSDSSRKTYSKYLASYRDEDSVIAIAPYDIAALQRAFDEAARNHWFIEAVFLEPVMGEGDPGRALPAEFYAAARTLTRNHGSLLLVDSIQAGLRAHGVLSVVDYPGFEQLDPPDLETYSKALNAAQYPLSVLAVTEQAAQVYRKGTYGNTMTTNPRALDVACATLALFTPQIRDNIRLRGAQALRKLEALQAELGGLITKVQGTGLLFSCELAPQYKCYGAGSTEEWLRHHGVNVIHGGENSLRFTPHFGMDEAELDLLVGLIAKALKEGPRQAQAEAEGHHHHHH”, the “soluble on expression in E. coli” value is recorded as “soluble”.
